# B1: Microcin V (MccV), mature, wildtype [modified: biotinylated (EZ-Link Sulfo-NHS-LC kit) for BLI and ELISA; not labelled for cryo-EM and SV-AUC; biotinylated (EZ-Link Sulfo-NHS-LC kit) for BLI and ELISA; not labelled for cryo-EM … (parent)
# chain 1: VDDDGETMVVTASSVEQNLKDAPASISVITQEDLQRKPVQNLKDVLKEVPGVQLTNEGDNRKGVSIRGLDSSYTLILVDGKRVNSRNAVFRHNDFDLNWIPVDSIERIEVVRGPMSSLYGSDALGGVVNIITKKIGQKWSGTVTVDTTIQEHRDRGDTYNGQFFTSGPLIDGVLGMKAYGSLAKREKDDPQNSTTTDTGETPRIEGFSSRDGNVEFAWTPNQNHDFTAGYGFDRQDRDSDSLDKNRLERQNYSVSHNGRWDYGTSELKYYGEKVENKNPGNSSPITSESNTVDGKYTLPLTAINQFLTVGGEMRHDKMSDAVNLTGGTSSKTSASQYALFVEDEWRIFEPLALTTGVRMDDHETYGEHWSPRAYLVYNATDTVTVKGGWATAFKAPSLLQLSPDWTSNSCRGACKIVGSPDLKPETSESWELGLYYMGEEGWLEGVESSVTVFRNDVKDRISISRTSDVNAAPGYQNFVGFETGANGRRIPVFSYYNVNKARIQGVETELKIPFNDEWKLSINYTYNDGRDVSNGENKPLSDLPFHTANGTLDWKPLALEDWSMYMSGHYTGQKRADSATAKTPGGYTIWNTGAAWQVTKDVKLRAGVLNLGDKDLSRDDYSYNEDGRRYFMAVDYRF
# chain 2: ASGRDIAMAIGTLSGQFVAGGIGAAAGGVAGGAIYDYASTHKPNPAMSPSGLGGTIKQKPEGIPSEAWNYAAGRLCNWSPNNLSDVCL
# Variants of: B1
# Experiment: BLI
# Details: for Kd: 100 nM biotinylated MccV loaded onto streptavidin-coated sensors, probed with dilutions of Cir, PBS-T; for response: raw shift at end of association (600 s), 100 nM biotinylated MccV on sensor, not baseline-subtracted, read off a plot
# [1] = with 4-Met substituted E. coli Cir (colicin Ia receptor)
Variant,Kd [1],"response (with 4-Met substituted E. coli Cir (colicin Ia receptor), 5 µM WT Cir, PBST trace at about 1.65 nm)","response (with 4-Met substituted E. coli Cir (colicin Ia receptor), 5 µM WT Cir, PBST trace at about 1.85 nm)",Kd (with Microcin V (MccV)),"response (with Microcin V (MccV), 5 µM Cir, PBST trace at about 1.5 nm)"
chain 2 D85A,888 nM,3.3 nm,,,
chain 2 D85R,692 nM,,3.2 nm,,
chain 1 C410A,,,,552 nM,4.5 nm
chain 1 R411E R465E,,,,1580 nM,
